Laboratory results from paper PMC10334339.

Substrate: O=c1[nH]c(=O)n([C@H]2C[C@H](O)[C@@H](COP(=O)(O)O)O2)cc1CO
Assay: purified protein
Format: biochemical, Homo sapiens

B1: 2′-Deoxynucleoside 5′-monophosphate N-glycosidase 1 (DNPH1) (Homo sapiens) (protein)
chain: AAAMVPGRSESWERGEPGRPALYFCGSIRGGREDRTLYERIVSRLRRFGTVLTEHVAAAELGARGEEAAGGDRLIHEQDLEWLQQADVVVAEVTQPSLGVGYELGRAVAFNKRILCLFRPQSGRVLSAMIRGAADGSRFQVWDYEEGEVEALLDRYFEADPPGQVAASPDPTT
Km: 6.3 ± 0.5 µM
